According to patent US20240391954A1, “MC4R AGONIST PEPTIDES” (The Regents of the University of Michigan, priority 2021, published 2024):
Positions of bridges follow the written chain, without caps; N, C: chain ends. Non-standard residues stand in square brackets, D forms with d. Phe(4-Br) = N[C@@H](Cc1ccc(Br)cc1)C(=O)O; dPhe(4-Br) = N[C@H](Cc1ccc(Br)cc1)C(=O)O; dPhe(4-I) = N[C@H](Cc1ccc(I)cc1)C(=O)O; d(hPhe) = N[C@H](CCc1ccccc1)C(=O)O; NMeR = CN[C@@H](CCCNC(=N)N)C(=O)O; Cit = NC(=O)NCCC[C@H](N)C(=O)O; Nle = CCCC[C@H](N)C(=O)O

B1: CTX-1284 (peptide)
peptide: Ac-RC[dA]R[dF][NMeR][dW]C-NH2
modifications: disulfide 2-8
SMILES: CC(=O)N[C@@H](CCCNC(=N)N)C(=O)N[C@H]1CSSC[C@@H](C(N)=O)NC(=O)[C@@H](Cc2c[nH]c3ccccc23)NC(=O)[C@H](CCCNC(=N)N)N(C)C(=O)[C@@H](Cc2ccccc2)NC(=O)[C@H](CCCNC(=N)N)NC(=O)[C@@H](C)NC1=O
B2: CTX-1234 (peptide)
peptide: Ac-[Nle]CH[dPhe(4-I)]R[dW]C-NH2
modifications: disulfide 2-7
SMILES: CCCC[C@H](NC(C)=O)C(=O)N[C@H]1CSSC[C@@H](C(N)=O)NC(=O)[C@@H](Cc2c[nH]c3ccccc23)NC(=O)[C@H](CCCNC(=N)N)NC(=O)[C@@H](Cc2ccc(I)cc2)NC(=O)[C@H](Cc2c[nH]cn2)NC1=O
B3: CTX-1229 (peptide)
peptide: Ac-R[Nle]CH[dPhe(4-Br)]RWC-NH2
modifications: disulfide 3-8
SMILES: CCCC[C@H](NC(=O)[C@H](CCCNC(=N)N)NC(C)=O)C(=O)N[C@H]1CSSC[C@@H](C(N)=O)NC(=O)[C@H](Cc2c[nH]c3ccccc23)NC(=O)[C@H](CCCNC(=N)N)NC(=O)[C@@H](Cc2ccc(Br)cc2)NC(=O)[C@H](Cc2c[nH]cn2)NC1=O
B4: CTX-1232 (peptide)
peptide: Ac-R[Nle]CR[dPhe(4-Br)]R[dW]C-NH2
modifications: disulfide 3-8
SMILES: CCCC[C@H](NC(=O)[C@H](CCCNC(=N)N)NC(C)=O)C(=O)N[C@H]1CSSC[C@@H](C(N)=O)NC(=O)[C@@H](Cc2c[nH]c3ccccc23)NC(=O)[C@H](CCCNC(=N)N)NC(=O)[C@@H](Cc2ccc(Br)cc2)NC(=O)[C@H](CCCNC(=N)N)NC1=O
B5: CTX-1230 (peptide)
peptide: Ac-R[Nle]CR[dPhe(4-Br)]RWC-NH2
modifications: disulfide 3-8
SMILES: CCCC[C@H](NC(=O)[C@H](CCCNC(=N)N)NC(C)=O)C(=O)N[C@H]1CSSC[C@@H](C(N)=O)NC(=O)[C@H](Cc2c[nH]c3ccccc23)NC(=O)[C@H](CCCNC(=N)N)NC(=O)[C@@H](Cc2ccc(Br)cc2)NC(=O)[C@H](CCCNC(=N)N)NC1=O
B6: CTX-1613 (peptide)
peptide: Ac-R[Nle]CR[dPhe(4-Br)]R[dW]C-NH2
modifications: disulfide 3-8
SMILES: CCCC[C@H](NC(=O)[C@H](CCCNC(=N)N)NC(C)=O)C(=O)N[C@H]1CSSC[C@@H](C(N)=O)NC(=O)[C@@H](Cc2c[nH]c3ccccc23)NC(=O)[C@H](CCCNC(=N)N)NC(=O)[C@@H](Cc2ccc(Br)cc2)NC(=O)[C@H](CCCNC(=N)N)NC1=O
B7: CTX-1239 (peptide)
peptide: Ac-RC[dA]R[d(hPhe)]R[dW]C-NH2
modifications: disulfide 2-8
SMILES: CC(=O)N[C@@H](CCCNC(=N)N)C(=O)N[C@H]1CSSC[C@@H](C(N)=O)NC(=O)[C@@H](Cc2c[nH]c3ccccc23)NC(=O)[C@H](CCCNC(=N)N)NC(=O)[C@@H](CCc2ccccc2)NC(=O)[C@H](CCCNC(=N)N)NC(=O)[C@@H](C)NC1=O
B8: CTX-1216 (peptide)
peptide: Ac-RC[dA]R[dPhe(4-Br)]R[dW]CKPV-NH2
modifications: disulfide 2-8
SMILES: CC(=O)N[C@@H](CCCNC(=N)N)C(=O)N[C@H]1CSSC[C@@H](C(=O)N[C@@H](CCCCN)C(=O)N2CCC[C@H]2C(=O)N[C@H](C(N)=O)C(C)C)NC(=O)[C@@H](Cc2c[nH]c3ccccc23)NC(=O)[C@H](CCCNC(=N)N)NC(=O)[C@@H](Cc2ccc(Br)cc2)NC(=O)[C@H](CCCNC(=N)N)NC(=O)[C@@H](C)NC1=O
B9: CTX-1612 (peptide)
peptide: Ac-R[Nle]CR[dPhe(4-Br)]RWC-NH2
modifications: disulfide 3-8
SMILES: CCCC[C@H](NC(=O)[C@H](CCCNC(=N)N)NC(C)=O)C(=O)N[C@H]1CSSC[C@@H](C(N)=O)NC(=O)[C@H](Cc2c[nH]c3ccccc23)NC(=O)[C@H](CCCNC(=N)N)NC(=O)[C@@H](Cc2ccc(Br)cc2)NC(=O)[C@H](CCCNC(=N)N)NC1=O

target: T1, human MC3R (human, UniProt P41968 1-323); experiment: cell-based or functional assay
T1 sequence (P41968 whole entry): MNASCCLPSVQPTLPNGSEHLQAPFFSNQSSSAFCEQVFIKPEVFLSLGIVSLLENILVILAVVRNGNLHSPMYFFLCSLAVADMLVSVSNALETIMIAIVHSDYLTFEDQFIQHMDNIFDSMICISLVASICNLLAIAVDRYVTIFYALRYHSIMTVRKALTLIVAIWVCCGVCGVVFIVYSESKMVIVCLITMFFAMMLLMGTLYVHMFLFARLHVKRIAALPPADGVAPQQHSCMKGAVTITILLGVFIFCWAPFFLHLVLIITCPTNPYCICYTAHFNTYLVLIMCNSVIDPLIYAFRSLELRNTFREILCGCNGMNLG

Binder | % max activation [%] | cAMP EC50 [nM]
Ac-RC[dA][Cit][dF]R[dW]C-NH2 (disulfide 2-8) [CTX-1286] | 24 | 568
B1 | 45 | 1040
Ac-RCA[Cit][dF]RWC-NH2 (disulfide 2-8) [CTX-1287] | 43 | 50

target: T2, human MC4R receptor (human, UniProt P32245 1-332); experiment: cell-based or functional assay
T2 sequence (P32245 whole entry): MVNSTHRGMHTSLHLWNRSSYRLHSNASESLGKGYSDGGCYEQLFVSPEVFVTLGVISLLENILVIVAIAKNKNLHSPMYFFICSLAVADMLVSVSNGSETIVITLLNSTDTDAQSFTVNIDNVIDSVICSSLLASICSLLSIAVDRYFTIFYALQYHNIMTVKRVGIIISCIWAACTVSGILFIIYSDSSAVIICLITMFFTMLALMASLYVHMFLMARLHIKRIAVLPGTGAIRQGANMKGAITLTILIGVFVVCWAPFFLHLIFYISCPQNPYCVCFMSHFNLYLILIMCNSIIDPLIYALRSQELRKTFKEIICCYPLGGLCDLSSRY

Binder | % max activation [%] | cAMP EC50 [nM]
Ac-RC[dA][Cit][dF]R[dW]C-NH2 (disulfide 2-8) [CTX-1286] | 91 | 262
B1 | 91 | 128
Ac-RCA[Cit][dF]RWC-NH2 (disulfide 2-8) [CTX-1287] | 94 | 0.77

target: T1, human MC3R; experiment: cell-based or functional assay; remark: another data set of the same source

Binder | % max activation [%] | cAMP EC50 [nM]
Ac-RC[dA]R[dPhe(4-Br)]R[dW]C-NH2 (disulfide 2-8) [CTX-1214] | 15 | 4.1
B2 | 18 | 3.4
Ac-RC[dA]R[Phe(4-Br)]RWC-NH2 (disulfide 2-8) [CTX-1212] | 0.1 | 28
B3 | 16 | 3.5
Ac-RC[dA]R[Phe(4-Br)]R[dW]C-NH2 (disulfide 2-8) [CTX-1215] | 2.1 | 27
B4 |  | 6
B5 |  | 3.9
B6 |  | 4
B7 |  | 74
Ac-RC[dA]R[d(hPhe)]R[dW]C-NH2 (disulfide 2-8) [CTX-1277] |  | 45
B8 | 11 | 3.5
B9 |  | 4.5

target: T2, human MC4R receptor; experiment: cell-based or functional assay; remark: another data set of the same source

Binder | % max activation [%] | cAMP EC50 [nM]
Ac-RC[dA]R[dPhe(4-Br)]R[dW]C-NH2 (disulfide 2-8) [CTX-1214] | 74 | 2.6
Ac-RC[dA]R[Phe(4-Br)]RWC-NH2 (disulfide 2-8) [CTX-1212] | 55 | 393
B3 | 31 | 18
Ac-RC[dA]R[Phe(4-Br)]R[dW]C-NH2 (disulfide 2-8) [CTX-1215] | 56 | 592
B4 |  | 2.4
B5 |  | 1.4
B6 |  | 1.9
B7 |  | 249
Ac-RC[dA]R[d(hPhe)]R[dW]C-NH2 (disulfide 2-8) [CTX-1277] |  | 429
B9 |  | 2

target: T2, human MC4R receptor; experiment: cell-based or functional assay; remark: another data set of the same source

Binder | MC4R selectivity vs MC1R | MC4R selectivity vs MC3R
Ac-RC[dA][Cit][dF]R[dW]C-NH2 (disulfide 2-8) [CTX-1286] | 3.4 | 2.16
B1 | 0.15 | 8.11
Ac-RCA[Cit][dF]RWC-NH2 (disulfide 2-8) [CTX-1287] | 281 | 66

target: T2, human MC4R receptor; experiment: cell-based or functional assay; remark: another data set of the same source

Binder | MC4R selectivity vs MC1R | MC4R selectivity vs MC3R
Ac-RC[dA]R[Phe(4-Br)]RWC-NH2 (disulfide 2-8) [CTX-1212] | 0.07 | 0.07
Ac-RC[dA]R[Phe(4-Br)]R[dW]C-NH2 (disulfide 2-8) [CTX-1215] | 0.07 | 0.05
